Test results from paper PMC8880691, “Impact of Linker Modification and PEGylation of Vancomycin Conjugates on Structure-Activity Relationships and Pharmacokinetics” (Pharmaceuticals, 2022).
Counter-ions that a name gives are not always drawn.

Tests used:
[1] = test system: vanB vancomycin-resistant enterococci; assay: Microdilution assay on vancomycin-resistant strains of the vanB type; type: cell-based
Description: (§1) The conjugates were tested in microdilution assays according to CLSI (Clinical and Laboratory Standards Institute) and EUCAST (European Committee on Antimicrobial Susceptibility Testing) guidelines on both vancomycin-sensitive and-resistant Gram-positive bacterial strains.
(§2) Antimicrobial activity assays were performed by microdilution and conducted in accordance with CLSI and EUCAST guidelines. Serial dilutions in MHB II (cation adjusted) were performed on 96-well plates using water-stock solutions of the compounds at different concentrations. Overnight cultures of bacterial strains were used to obtain bacteria in the logarithmic growth phase. Bacteria were adjusted to a McFarland corresponding to 1 × 10^8 cfu/mL. After a 1:100 dilution, the culture broth was loaded onto the 96-well polypropylene plates, resulting in a final bacterial concentration of 5 × 10^5 cfu/mL. Plates were then incubated at 37 ± 1 °C for 18–24 h. The MICs were assessed as the lowest concentration without visible growth.

[2] = test system: B. subtilis DSM10; assay: microbe, parasite or virus in culture; type: cell-based
Description: as §1, §2
Table S1. Minimum inhibitory concentration against B. subtilis DSM10.
activity. Shown is the median of at least three independent measurements (range is shown in brackets).
Compound Minimum Inhibitory Concentration
against B. subtilis DSM10 [mg/L] […]
[mg/L] [% hemolysis] [% hemolysis] [% hemolysis] […]

[3] = Molecular imaging (scintigraphy) of 125I-labeled compounds; type: in vivo, female Wistar rats; settings: rat
Description: (§3) Molecular imaging and biodistribution studies were performed for VAN1 and VAN2, as well as for VAN:PEG1 and VAN:PEG2, using female Wistar rats.
(§4) For biodistribution and pharmacokinetic studies, compounds were radiolabeled with ^125I. The previously described method for the insertion of an additional D-tyrosine to the N-terminus of the peptide moiety was used to enable […] substitution for VAN1 and VAN2 [11]. For the PEGylated derivatives, VAN:PEG1 and VAN:PEG2, tyrosine-modified FU002y was used to synthesize the intermediate. Radiolabeling was performed using the chloramine T method as previously described. Thus, a 1 mM stock solution of the respective compound in phosphate buffer/dimethyl sulfoxide was prepared. The required amount of the radionuclide (^125I) was added to a mixture of 25 μL of the stock solution and 25 μL of phosphate buffer (0.25 mM; pH = 7.5). Purification of the labeled compounds was performed by semi-preparative HPLC. Analysis was conducted by radio HPLC (Agilent 1100 series) using a Chromolith® Performance RP-18e, 100 × 3 mm column, applying a linear gradient of 0.1% TFA in water (eluent A) to 0.1% TFA in acetonitrile (eluent B) within 5 min (flow rate, 2 mL/min; UV absorbance, λ = 214 nm; γ-detection). Animals were anaesthetized by isoflurane inhalation, and appropriate amounts of the radiolabeled conjugate dissolved in 100 µL 0.9% NaCl solution were injected into the tail vein. Cumulative scintigraphic images were taken after 10 min and 1, 2, 3, 5 and 24 h. For the biodistribution studies, animals were sacrificed at the indicated points in time. The activity of the weighed organs was measured in comparison with standards. Tissue-associated activity was related to the total injected dose (ID) and expressed as a percentage of the total injected dose per gram of tissue (%ID/g). The data were calculated afterwards to obtain the respective organ/organ or organ/blood ratios.

[4] = test system: vanC vancomycin-resistant enterococci; assay: Microdilution assay on vancomycin-resistant strains of the vanC type; type: cell-based; settings: resistant strains of the vanC type (low-level resistant)
Description: as §1, §2

[5] = test system: erythrocytes; type: cell-based, human
Description: To determine the toxicity to red blood cells and thus confirm the selectivity to bacteria, a hemoglobin release assay was carried out with VAN1, VAN2 and VAN3, as well as the PEGylated conjugate, VAN:PEG1.
To exclude lytic activity and to evaluate the toxicological potential of the conjugates, hemolysis studies were performed as previously described. Briefly, fresh heparinized blood of four male, fasted volunteers was taken, and erythrocytes were purified by centrifugation of the blood at 2500 rpm for 10 min. The supernatant was removed, and the resulting pellet was washed with PBS at least three times, until the supernatant remained clear. The conjugates were serially diluted from stock solutions (in phosphate-buffered saline) in a 96-well plate at concentrations ranging from 120 µg/mL to 0.23 µg/mL (VAN1) or 16 µg/mL to 0.03 µg/mL (VAN2, VAN3 and VAN:PEG1), resulting in a final volume of 50 µL. A solution of Triton®X-100 in PBS was used as positive control. Finally, 50 µL of the washed erythrocytes was loaded into each well. After incubation for 30 min at 37 °C, 75 µL PBS was added to each well, and the plates were centrifuged for 5 min at 4000 rpm. A total of 50 µL of the supernatants was then transferred into a new polystyrene, flat-bottom 96-well plate, and the absorbances were measured at 554 nm using a Tecan microplate reader. Hemolysis was calculated as follows: Hemolysis %=100×Asubstance−Aneg. control/ATriton−Aneg. control
The negative control was erythrocytes, treated as described but using only PBS.

[6] = Biodistribution study with excised organs, 125I-labeled compounds; type: in vivo, female Wistar rats; settings: rat
Description: as §3
To further compare the two modification strategies, the biodistribution profiles of VAN1, VAN2 and vancomycin were compared using excised organs. This study confirms significant liver accumulation in most cases.
as §4

[7] = 10 min post injection, tail vein, from %ID/g of excised organs

CC(C)C[C@H](C(=O)N[C@H]1C(=O)N[C@@H](CC(N)=O)C(=O)N[C@H]2C(=O)N[C@H]3C(=O)N[C@H](C(=O)N[C@H](C(=O)O)c4cc(O)cc(O)c4-c4cc3ccc4O)[C@H](O)c3ccc(c(Cl)c3)Oc3cc2cc(c3O[C@@H]2O[C@H](CO)[C@@H](O)[C@H](O)[C@H]2O[C@H]2C[C@](C)(N)[C@H](O)[C@H](C)O2)Oc2ccc(cc2Cl)[C@H]1O)N(C)C(=O)CCOCCOCCOCCOCCOCCOCCOCCOCCOCCOCCOCCOCCNC(=O)CCN1C(=O)CC(SC[C@H](NC(=O)[C@H](CCCNC(=N)N)NC(=O)[C@H](CCCNC(=N)N)NC(=O)[C@H](CCCNC(=N)N)NC(=O)[C@H](CCCNC(=N)N)NC(=O)[C@H](CCCNC(=N)N)NC(=O)[C@@H](N)CCCNC(=N)N)C(N)=O)C1=O (stereo partly drawn) [VAN2]
overcoming the molar-resistance breakpoint (EUCAST), vanB type [1]: able to overcome the molar-resistance breakpoint | Minimum Inhibitory Concentration against B. subtilis DSM10 [2]: 2 (1–4) mg/L | pharmacokinetic behavior by molecular imaging ([3]; in vivo): rapid liver accumulation can still be observed, in addition to renal elimination | overcoming the molar-resistance breakpoint (EUCAST), vanC type [4]: able to overcome the molar-resistance breakpoint | hemolytic activity [5]: None of the compounds showed significant hemolytic activity | Ratio Kidney/Blood ([6]; in vivo): 10.09 | Ratio Liver/Blood ([6]; in vivo): 9.25 | Ratio Liver/Kidney ([6]; in vivo): 0.92

CC(C)C[C@H](C(=O)N[C@H]1C(=O)N[C@@H](CC(N)=O)C(=O)N[C@H]2C(=O)N[C@H]3C(=O)N[C@H](C(=O)N[C@H](C(=O)O)c4cc(O)cc(O)c4-c4cc3ccc4O)[C@H](O)c3ccc(c(Cl)c3)Oc3cc2cc(c3O[C@@H]2O[C@H](CO)[C@@H](O)[C@H](O)[C@H]2O[C@H]2C[C@](C)(N)[C@H](O)[C@H](C)O2)Oc2ccc(cc2Cl)[C@H]1O)N(C)C(=O)CCCCCCCCCCN1C(=O)CC(SC[C@H](NC(=O)[C@H](CCCNC(=N)N)NC(=O)[C@H](CCCNC(=N)N)NC(=O)[C@H](CCCNC(=N)N)NC(=O)[C@H](CCCNC(=N)N)NC(=O)[C@H](CCCNC(=N)N)NC(=O)[C@@H](N)CCCNC(=N)N)C(N)=O)C1=O (stereo partly drawn) [VAN1]
Minimum Inhibitory Concentration against B. subtilis DSM10 [2]: 1 (0.5–1) mg/L | pharmacokinetic behavior by molecular imaging ([3]; in vivo): accumulates quickly in the liver | hemolytic activity [5]: None of the compounds showed significant hemolytic activity | Ratio Kidney/Blood ([6]; in vivo): 2.22 | Ratio Liver/Blood ([6]; in vivo): 10.13 | Ratio Liver/Kidney ([6]; in vivo): 4.47

CN[C@H](CC(C)C)C(=O)N[C@H]1C(=O)N[C@@H](CC(N)=O)C(=O)N[C@H]2C(=O)N[C@H]3C(=O)N[C@H](C(=O)N[C@H](C(=O)O)c4cc(O)cc(O)c4-c4cc3ccc4O)[C@H](O)c3ccc(c(Cl)c3)Oc3cc2cc(c3O[C@@H]2O[C@H](CO)[C@@H](O)[C@H](O)[C@H]2O[C@H]2C[C@](C)(N)[C@H](O)[C@H](C)O2)Oc2ccc(cc2Cl)[C@H]1O [Vancomycin, vancomycin hydrochloride]
MIC ([2]; Bacillus subtilis, DSM10, read-out: Minimum Inhibitory Concentration against B. subtilis DSM10): 0.25 µg/mL | pharmacokinetic behavior by molecular imaging ([3]; 125I-labeled, tail vein injection, scintigraphic images 10 min to 24 h): fast renal elimination | Ratio Kidney/Blood [6, 7]: 2.16 | Ratio Liver/Blood [6, 7]: 0.36 | Ratio Liver/Kidney [6, 7]: 0.17

CC(C)C[C@H](C(=O)N[C@H]1C(=O)N[C@@H](CC(N)=O)C(=O)N[C@H]2C(=O)N[C@H]3C(=O)N[C@H](C(=O)N[C@H](C(=O)O)c4cc(O)cc(O)c4-c4cc3ccc4O)[C@H](O)c3ccc(c(Cl)c3)Oc3cc2cc(c3O[C@@H]2O[C@H](CO)[C@@H](O)[C@H](O)[C@H]2O[C@H]2C[C@](C)(N)[C@H](O)[C@H](C)O2)Oc2ccc(cc2Cl)[C@H]1O)N(C)C(=O)CN1C(=O)CC(SC[C@H](NC(=O)[C@H](CCCNC(=N)N)NC(=O)[C@H](CCCNC(=N)N)NC(=O)[C@H](CCCNC(=N)N)NC(=O)[C@H](CCCNC(=N)N)NC(=O)[C@H](CCCNC(=N)N)NC(=O)[C@@H](N)CCCNC(=N)N)C(N)=O)C1=O (stereo partly drawn) [VAN3]
Minimum Inhibitory Concentration against B. subtilis DSM10 [2]: < 0.125 mg/L | hemolytic activity [5]: None of the compounds showed significant hemolytic activity
